{
  "source": "patent US20260092115A1",
  "about": "(Chugai, published 2026)",
  "binders": {"B1": {"name": "04H1654-KT473/04L1612-lam1//04H1656-HT482/04L1612-lam1 (antibody, IgG1)", "heavy 1": "QVQLVESGGGVVQPGGSLRLSCAASGFTFSSKTMNWVRQAPGKGLEWVSSISTQSHYIYYARSVRGRFTISRDNAKNSLYLQMNSLRAEDTAVYYCARYGKREDMLWVFDYWGQGTLVTVSSASTKGPSVFPLAPSSKSTSGGTAALGCLVKDYFPEPVTVSWNSGALTSGVHTFPAVLQSSGLYSLSSVVTVPSSSLGTQTYICNVNHKPSNTKVDKRVEPKSCDKTHTCPPCPAPEFQWGPMVFLFPPKPKDVLMISRTPEVTCVVVDVSDEEPEVKFNWYVDGVEVHNAKTKPREEQYNATYRVVSVLPVLHQDWLNGKEYKCKVSNDALPAPIEKTISKAKGQPREPQVYTLPPSRKEMTKNQVSLTCLVKGFYPSDIAVEWESNGQPENNYKTTPPVLDSDGSFFLYSKLTVDKSRWQQGNVFSCSVMHEALHAHTTRKELSLSP", "heavy 2": "QVQLVESGGGVVQPGGSLRLSCAASGFTFSSKTMNWVRQAPGKGLEWVSSISTQSHYIYYAESVRGRFTISRDNAKNSLYLQMNSLRAEDTAVYYCARYGAREDMLWVFDYWGQGTLVTVSSASTKGPSVFPLAPSSKSTSGGTAALGCLVKDYFPEPVTVSWNSGALTSGVHTFPAVLQSSGLYSLSSVVTVPSSSLGTQTYICNVNHKPSNTKVDKRVEPKSCDKTHTCPPCPAPELLAGPSVFLFPPKPKDVLMISRTPEVTCVVVDVSHEEPEVKFNWYVDGVEVHNAKTKPREEQYNATYRVVSVLPVLHQDWLNGKEYKCKVSNDALPKPDEETISKAKGQPREPQVYTLPPSREEMTKNQVSLTCLVKGFYPSDIAVEWESNGQPENNYKTTPPVLDSDGSFFLYSKLTVDKSRWQQGNVFSCSVMHEALHAHTTREELSLSP", "light": "QSALTQPPSASGSPGQSVTISCEGPSTGVGDYTYVHWYQQHPGKAPKLMIYFTSKKPSGVPDRFSGSKSGNTASLTVSGLQAEDEADYYCQTYAAPLGPMFGGGTKLTVLGQPKAAPSVTLFPPSSEELQANKATLVCLISDFYPGAVTVAWKADSSPVKAGVETTTPSKQSNNKYAASSYLSLTPEQWKSHRSYSCQVTHEGSTVEKTVAPTECS", "notes": "Heterodimerized IgG1 Fc variant with N434A/Y436T/Q438R/S440E"}, "B2": {"name": "04H1654-KT481/04L1612-lam1//04H1656-HT498/04L1612-lam1 (antibody, IgG1)", "heavy 1": "B1 heavy 1 with I337E", "heavy 2": "B1 heavy 2 with K335A, D337E", "light": "B1 light", "notes": "as for B1"}, "B3": {"name": "04H1654-KT481/04L1610-lam1//04H1656-HT498/04L1610-lam1 (antibody, IgG1)", "heavy 1": "B1 heavy 1 with I337E", "heavy 2": "B1 heavy 2 with K335A, D337E", "light": "B1 light with T33N, Y34W", "notes": "as for B1"}},
  "key": {"[1]": {"biological_target": "T1, human FcγRIIb extracellular domain, His-tagged (human, UniProt P31994 43-217)", "T1 construct": "extracellular domain; also called hFcγR IIb", "T1 sequence (looked up)": "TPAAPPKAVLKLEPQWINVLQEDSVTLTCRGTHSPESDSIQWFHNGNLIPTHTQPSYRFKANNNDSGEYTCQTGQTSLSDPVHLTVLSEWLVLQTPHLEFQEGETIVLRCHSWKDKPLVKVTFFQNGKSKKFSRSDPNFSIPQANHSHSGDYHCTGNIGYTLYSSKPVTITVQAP", "assay": "binding amount of this antibody divided by that of 04H1637-G1m/04L1610-lam1; SPR pH 7.4", "experimental": "(§1) The interaction between the generated antibodies and human FcγRs was analyzed by the following method using Biacore T200. 50 mM Na-Phosphate, 150 mM NaCl, 0.05% Tween20 (pH 7.4) was used as the running buffer, and the assay was performed at 25° C. For the sensor chips, Series S SA (GE Healthcare) chips onto which CaptureSelect Human Fab-lambda Kinetics Biotin Conjugate (Thermo Fisher Scientific) was immobilized were used. The antibodies of interest were captured onto these chips and each FcγR diluted in the running buffer was allowed to interact with them. Chips were regenerated with 10 mM Glycine-HCl (pH 1.5) and 25 mM NaOH, and assay was performed by repeatedly capturing antibodies. The dissociation constants KD (mol/L) for FcγRs of each antibody were calculated using Biacore T200 Evaluation Software 2.0, using the 1:1 Langmuir binding model for FcγRIa and FcγRIIIa and the steady state affinity model for FcγRIIa. For FcγRIIb, the binding amount of FcγRIIb per unit amount of antibody was calculated by correcting the binding amount of FcγRIIb obtained from the sensorgram obtained by the measurement with the amount of antibody captured onto the chip surface.\n(§2) “Relative value to KD between G1m and hFcRn” and “Relative value to KD between G1m and hFcγRs” are values obtained by dividing the KD value of 04H1637-G1m/04L1610-lam1 for hFcRn and for each FcγR by the KD value of each variant, respectively. “Relative binding amount” indicates the value obtained by dividing the binding amount of each variant to FcγRIIb by the binding amount of 04H1637-G1m/04L1610-lam1. […] It was shown that all of the generated heterodimerized antibodies had enhanced binding to FcγRIIa and FcγRIIIa as compared with 04H1637-G1m/04L1610-lam1 which has the constant region of native human IgG1."}, "[2]": {"biological_target": "T2, human FcγRIIIa, allotype F158, extracellular domain, His-tagged (human, UniProt P08637 17-208)", "T2 construct": "extracellular domain; also called hFcγR IIIa F", "T2 sequence (P08637 17-208)": "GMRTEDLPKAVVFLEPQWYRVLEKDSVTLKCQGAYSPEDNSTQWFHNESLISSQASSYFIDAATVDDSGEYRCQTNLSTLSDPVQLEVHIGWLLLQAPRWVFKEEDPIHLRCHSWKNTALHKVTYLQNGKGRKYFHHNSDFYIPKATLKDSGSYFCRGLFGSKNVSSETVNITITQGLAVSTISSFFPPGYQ", "assay": "KD of 04H1637-G1m/04L1610-lam1 divided by KD of this antibody; SPR pH 7.4", "experimental": "as §1, §2"}, "[3]": {"biological_target": "T3, human FcγRIIIa, allotype V158, extracellular domain, His-tagged (human, UniProt P08637 17-208)", "T3 construct": "extracellular domain; also called hFcγR IIIa V", "T3 sequence (P08637 17-208 F176V)": "as the sequence (P08637 17-208) above, with F160V counted along it", "assay": "KD of 04H1637-G1m/04L1610-lam1 divided by KD of this antibody; SPR pH 7.4", "experimental": "as §1, §2"}, "[4]": {"biological_target": "T4, human FcγRIIa, type H, extracellular domain, His-tagged (human, UniProt P12318 34-217)", "T4 construct": "extracellular domain; also called hFcγR IIa H", "T4 sequence (looked up)": "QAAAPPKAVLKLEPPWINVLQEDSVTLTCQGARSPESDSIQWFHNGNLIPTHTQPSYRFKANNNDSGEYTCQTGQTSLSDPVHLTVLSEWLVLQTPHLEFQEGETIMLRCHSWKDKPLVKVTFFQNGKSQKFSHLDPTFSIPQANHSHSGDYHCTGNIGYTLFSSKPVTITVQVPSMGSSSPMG", "assay": "KD of 04H1637-G1m/04L1610-lam1 divided by KD of this antibody; SPR pH 7.4", "experimental": "as §1, §2"}, "[5]": {"biological_target": "T5, human FcγRIa extracellular domain, His-tagged (human, UniProt P12314 16-292)", "T5 construct": "also called hFcγR Ia", "T5 sequence (P12314 16-292)": "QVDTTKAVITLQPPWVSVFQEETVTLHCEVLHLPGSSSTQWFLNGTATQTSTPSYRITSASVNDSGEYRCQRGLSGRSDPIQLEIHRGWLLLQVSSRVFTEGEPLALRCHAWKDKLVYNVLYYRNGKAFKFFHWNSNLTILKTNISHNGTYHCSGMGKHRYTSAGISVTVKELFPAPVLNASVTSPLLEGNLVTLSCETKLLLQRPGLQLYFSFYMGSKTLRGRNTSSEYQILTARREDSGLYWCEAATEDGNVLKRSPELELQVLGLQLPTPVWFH", "assay": "KD of 04H1637-G1m/04L1610-lam1 divided by KD of this antibody; SPR pH 7.4", "experimental": "as §1, §2"}, "[6]": {"biological_target": "T6, human FcγRIIa, type R, extracellular domain, His-tagged (human, UniProt P12318 34-217)", "T6 construct": "extracellular domain; also called hFcγR IIa R", "T6 sequence (looked up)": "T4 sequence (looked up) with H134R", "assay": "KD of 04H1637-G1m/04L1610-lam1 divided by KD of this antibody; SPR pH 7.4", "experimental": "as §1, §2"}, "[7]": {"biological_target": "T1, human FcγRIIb extracellular domain, …", "assay": "SPR Biacore T200, 25C, pH 7.4; FcγRIIb at 1000 nM, corrected by captured antibody", "experimental": "as §1"}, "human FcRn": {"biological_target": "T7, human FcRn (human, UniProt P55899 24-290; P61769 21-119)", "T7 construct": "Prepared by the method of WO 2010/107110; also called hFcRn", "T7 sequence (P55899 24-290 limits assumed, chain 1 of 2)": "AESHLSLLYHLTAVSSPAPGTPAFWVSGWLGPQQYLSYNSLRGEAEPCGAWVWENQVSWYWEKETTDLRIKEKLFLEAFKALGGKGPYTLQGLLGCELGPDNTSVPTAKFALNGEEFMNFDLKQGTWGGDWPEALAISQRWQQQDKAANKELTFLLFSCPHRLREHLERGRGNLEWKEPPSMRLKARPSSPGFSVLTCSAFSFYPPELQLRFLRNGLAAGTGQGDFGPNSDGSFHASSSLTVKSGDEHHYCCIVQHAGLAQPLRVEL", "T7 sequence (P61769 21-119 limits assumed, chain 2 of 2)": "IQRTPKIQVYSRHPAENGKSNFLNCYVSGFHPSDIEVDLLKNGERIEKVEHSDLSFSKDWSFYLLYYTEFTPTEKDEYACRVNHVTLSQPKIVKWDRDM", "assay": "KD of 04H1637-G1m/04L1610-lam1 divided by KD of this antibody; SPR pH 6.0", "experimental": "The interaction between the generated antibodies and human FcRn was analyzed by the following method using Biacore T200. 50 mM Na-Phosphate, 150 mM NaCl, 0.05% Tween20 (pH 6.0) was used as the running buffer, and the assay was performed at 25° C. For the sensor chip, Series S SA (GE Healthcare) chips onto which CaptureSelect Human Fab-lambda Kinetics Biotin Conjugate (Thermo Fisher Scientific) was immobilized were used. The antibodies of interest were captured onto these chips and FcRn diluted in the running buffer was allowed to interact with them. Chips were regenerated with 10 mM Glycine-HCl (pH 1.5) and 25 mM NaOH, and assay was performed by repeatedly capturing antibodies. The dissociation constant for FcRn of each antibody was calculated using the steady state model, using Biacore T200 Evaluation Software 2.0.\n“Relative value to KD between G1m and hFcRn” and “Relative value to KD between G1m and hFcγRs” are values obtained by dividing the KD value of 04H1637-G1m/04L1610-lam1 for hFcRn and for each FcγR by the KD value of each variant, respectively. “Relative binding amount” indicates the value obtained by dividing the binding amount of each variant to FcγRIIb by the binding amount of 04H1637-G1m/04L1610-lam1. […] It was shown that all of the generated heterodimerized antibodies had enhanced binding to FcγRIIa and FcγRIIIa as compared with 04H1637-G1m/04L1610-lam1 which has the constant region of native human IgG1. Furthermore, 04H1637-Kn462/04L1610-lam1//04H1637-H1441/04L1610-lam1, 04H1637-Kn462/04L1610-lam1//04H1637-H1445/04L1610-lam1, and 04H1637-Kn461/04L1610-lam1//04H1637-H1443/04L1610-lam1 were all shown to have enhanced binding to FcγRIIa compared to 04H1637-Kn125/04L1610-lam1//04H1637-H1076/04L1610-lam 1 which has the Fc region variant reported in WO 2013/002362."}},
  "note": "Positions count from the first letter of the chain named. Names may count otherwise.",
  "data": [
    {"binder": "B1", "values": [
      {"measurement": "Relative binding amount", "setting": "[1]", "value": 3.2, "unit": "ratio"},
      {"measurement": "Relative value to KD between G1m and hFcγRs", "setting": "[2]", "value": 355, "unit": "ratio"},
      {"measurement": "Relative value to KD between G1m and hFcγRs", "setting": "[3]", "value": 110, "unit": "ratio"},
      {"measurement": "Relative value to KD between G1m and hFcγRs", "setting": "[4]", "value": 16.2, "unit": "ratio"},
      {"measurement": "Relative value to KD between G1m and hFcγRs", "setting": "[5]", "value": 1, "unit": "ratio"},
      {"measurement": "Relative value to KD between G1m and hFcγRs", "setting": "[6]", "value": 13.8, "unit": "ratio"},
      {"measurement": "Binding amount", "setting": "[7]", "value": "0.026 RU per RU of captured antibody"},
      {"measurement": "Relative value to KD between G1m and hFcRn", "setting": "human FcRn", "value": 2.1, "unit": "ratio"}
    ]},
    {"binder": "B2", "values": [
      {"measurement": "Relative binding amount", "setting": "[1]", "value": 2.8, "unit": "ratio"},
      {"measurement": "Relative value to KD between G1m and hFcγRs", "setting": "[2]", "value": 479, "unit": "ratio"},
      {"measurement": "Relative value to KD between G1m and hFcγRs", "setting": "[3]", "value": 145, "unit": "ratio"},
      {"measurement": "Relative value to KD between G1m and hFcγRs", "setting": "[4]", "value": 6.4, "unit": "ratio"},
      {"measurement": "Relative value to KD between G1m and hFcγRs", "setting": "[5]", "value": 1.1, "unit": "ratio"},
      {"measurement": "Relative value to KD between G1m and hFcγRs", "setting": "[6]", "value": 7.6, "unit": "ratio"},
      {"measurement": "Binding amount", "setting": "[7]", "value": "0.022 RU per RU of captured antibody"},
      {"measurement": "Relative value to KD between G1m and hFcRn", "setting": "human FcRn", "value": 2.2, "unit": "ratio"}
    ]},
    {"binder": "B3", "values": [
      {"measurement": "Relative binding amount", "setting": "[1]", "value": 2.7, "unit": "ratio"},
      {"measurement": "Relative value to KD between G1m and hFcγRs", "setting": "[2]", "value": 495, "unit": "ratio"},
      {"measurement": "Relative value to KD between G1m and hFcγRs", "setting": "[3]", "value": 152, "unit": "ratio"},
      {"measurement": "Relative value to KD between G1m and hFcγRs", "setting": "[4]", "value": 6.5, "unit": "ratio"},
      {"measurement": "Relative value to KD between G1m and hFcγRs", "setting": "[5]", "value": 1.5, "unit": "ratio"},
      {"measurement": "Relative value to KD between G1m and hFcγRs", "setting": "[6]", "value": 7.7, "unit": "ratio"},
      {"measurement": "Binding amount", "setting": "[7]", "value": "0.022 RU per RU of captured antibody"},
      {"measurement": "Relative value to KD between G1m and hFcRn", "setting": "human FcRn", "value": 2.3, "unit": "ratio"}
    ]}
  ]
}
